T1: human CD39 protein (recombinant) (human, UniProt P49961 38-478, limits assumed)
T1 sequence: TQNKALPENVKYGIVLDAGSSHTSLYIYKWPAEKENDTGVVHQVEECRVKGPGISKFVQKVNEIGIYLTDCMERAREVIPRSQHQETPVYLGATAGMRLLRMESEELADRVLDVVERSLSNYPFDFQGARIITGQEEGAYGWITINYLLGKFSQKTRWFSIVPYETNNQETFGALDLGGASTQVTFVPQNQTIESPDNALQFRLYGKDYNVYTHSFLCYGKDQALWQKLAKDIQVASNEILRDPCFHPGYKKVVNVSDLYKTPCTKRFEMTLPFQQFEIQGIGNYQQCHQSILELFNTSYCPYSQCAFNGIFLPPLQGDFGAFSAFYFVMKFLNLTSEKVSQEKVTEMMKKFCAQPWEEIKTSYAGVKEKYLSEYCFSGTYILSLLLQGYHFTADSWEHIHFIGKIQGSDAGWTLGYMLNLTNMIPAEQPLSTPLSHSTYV


Experiments:
[1] = target: T1, human CD39 protein (recombinant); experiment: cell-based or functional assay
[2] = target: T1, human CD39 protein (recombinant); experiment: ELISA on coated human CD39 protein
Method: To determine if anti-CD39 mAbs bind to human CD39, ELISA plates were incubated overnight at 4° C. with human CD39 protein or mouse CD39 protein diluted in PBS, pH7.4 buffer at 1 μg/ml. Plates were washed four times in washing buffer (PBS containing 0.05% Tween 20), and blocked for 1 hour at 37° C. with 200 μl per well blocking buffer (1% BSA in PBS containing 0.05% Tween 20). After blocking buffer was removed, hybridoma supernatant or diluted purified Abs were added to the wells at 100 μl per well and incubated at 37° C. for 1 hour. The wells were washed four times with washing buffer, and anti-mouse HRP (for mouse anti-human CD39 Ab characterization) or anti-rat HRP (for rat anti-mouse CD39 Ab characterization) (Sigma) were 1:5000 diluted and added to the wells at 100 μl per well. The plates were incubated for 1 hour at 37° C. and washed four times in washing buffer. 100 μl of tetramethylbenzidine (TMB) chromogenic solution were added per well. Following color development, the reaction was stopped with 1N HCl, and absorbance at 450 nm was measured. The data were proceeded by GraphPad software.
Humanized antibodies HuEM04-38-6 to HuEM0004-38-20 and chimeric antibodies EM04-38c, EM004-38c1, and EM0004-38c2 were tested for CD39 specific binding by ELISA as described in Example 1.2 and for inhibition of protein-based ATPase activity as described in Example 1.3.

| ATPase inhibition IC50 [1] | ATPase inhibition, inhibition % [1] | EC50 [2] | Binder |
| --- | --- | --- | --- |
| 24.2 nM | 107% | 0.014 µg/mL | EM0004-38c (antibody, human IgG1, kappa, L234A L235A, V domains shown, chimeric mAb638; also called EM04-38c) VH: QVQLQQPGTELVKPGASVKLSCKASGYTFTSFWMHWVKQRPGQGLEWIGNINPRNGATKYNEKFRSKVTLTADKTSSTAYMHLSSLTSEDSAVYYCAREDYDEIYYAMDSWGQGTSVTVSS VL: QNVLTQSPAIMSASPGEKVTMTCSASSSVIYMYWFQQKPGSSPRVLIYDTSNLASGVPARFSGSGSGTSYSLTISRMEAEDAATYYCQQWSTYPLTFGAGTKLELKR |
| 140 nM | 64.1% | – | HuEM0004-38-6 (antibody, human IgG1, kappa, L234A L235A, V domains shown) VH: EVQLVQSGAEVKKPGASVKVSCKASGYTFTSFWMHWVRQAPGQGLEWMGNINPRNGATKYNEKFRSRVTMTADTSISTAYMELSRLRSDDTAVYYCAREDYDEIYYAMDSWGQGTTVTVSS VL: ENVLTQSPATLSLSPGERATLSCSASSSVIYMYWFQQKPGQAPRLLIYDTSNLASGIPARFSGSGSGTDYTLTISSLEPEDFAVYYCQQWSTYPLTFGQGTKLEIKR |
| 36.2 nM | 98.7% | 0.023 µg/mL | HuEM0004-38-13 (antibody, human IgG1, kappa, L234A L235A, V domains shown, humanized mAb638, human IgG1/kappa) VH: EVQLVQSGAEVKKPGASVKVSCKASGYTFTSFWMHWVRQAPGQGLEWMGNINPRNGATKYNEKFRSRVTLTADKSISTAYMELSRLRSDDTAVYYCAREDYDEIYYAMDSWGQGTTVTVSS VL: ENVLTQSPATLSLSPGERATLSCSASSSVIYMYWFQQKPGQSPRVLIYDTSNLASGIPARFSGSGSGTDYTLTISSLEPEDFAVYYCQQWSTYPLTFGQGTKLEIKR |
| 79.6 nM | 61.6% | – | HuEM0004-38-9 (antibody, human IgG1, kappa, L234A L235A, V domains shown) VH: EVQLVQSGAEVKKPGASVKVSCKASGYTFTSFWMHWVRQAPGQGLEWIGNINPRNGATKYNEKFRSRVTLTADKSISTAYMELSRLRSDDTAVYYCAREDYDEIYYAMDSWGQGTTVTVSS VL: ENVLTQSPATLSLSPGERATLSCSASSSVIYMYWFQQKPGQAPRLLIYDTSNLASGIPARFSGSGSGTDYTLTISSLEPEDFAVYYCQQWSTYPLTFGQGTKLEIKR |
| 20.4 nM | 103% | 0.044 µg/mL | HuEM0004-38-17 (antibody, human IgG1, kappa, L234A L235A, V domains shown, humanized mAb638, human IgG1/kappa) VH: EVQLVQSGAEVKKPGASVKVSCKASGYTFTSFWMHWVRQAPGQGLEWMGNINPRNGATKYNEKFRSRVTMTADKSISTAYMELSRLRSDDTAVYYCAREDYDEIYYAMDSWGQGTTVTVSS VL: ENVLTQSPATLSLSPGERATLSCSASSSVIYMYWFQQKPGQSPRVLIYDTSNLASGVPARFSGSGSGTDYTLTISSLEPEDFAVYYCQQWSTYPLTFGQGTKLEIKR |
| 40.9 nM | 97.6% | 0.031 µg/mL | HuEM0004-38-15 (antibody, human IgG1, kappa, L234A L235A, V domains shown, humanized mAb638, human IgG1/kappa) VH: EVQLVQSGAEVKKPGASVKVSCKASGYTFTSFWMHWVRQAPGQGLEWIGNINPRNGATKYNEKFRSKVTLTADKSISTAYMELSRLRSDDTAVYYCAREDYDEIYYAMDSWGQGTTVTVSS VL: ENVLTQSPATLSLSPGERATLSCSASSSVIYMYWFQQKPGQSPRVLIYDTSNLASGIPARFSGSGSGTDYTLTISSLEPEDFAVYYCQQWSTYPLTFGQGTKLEIKR |
| 36.9 nM | 98.9% | 0.021 µg/mL | HuEM0004-38-14 (antibody, human IgG1, kappa, L234A L235A, V domains shown, humanized mAb638, human IgG1/kappa) VH: EVQLVQSGAEVKKPGASVKVSCKASGYTFTSFWMHWVRQAPGQGLEWIGNINPRNGATKYNEKFRSRVTLTADKSISTAYMELSRLRSDDTAVYYCAREDYDEIYYAMDSWGQGTTVTVSS VL: ENVLTQSPATLSLSPGERATLSCSASSSVIYMYWFQQKPGQSPRVLIYDTSNLASGIPARFSGSGSGTDYTLTISSLEPEDFAVYYCQQWSTYPLTFGQGTKLEIKR |
| 83.2 nM | 71.5% | 0.175 µg/mL | HuEM0004-38-10 (antibody, human IgG1, kappa, L234A L235A, V domains shown, humanized mAb638, human IgG1/kappa) VH: EVQLVQSGAEVKKPGASVKVSCKASGYTFTSFWMHWVRQAPGQGLEWIGNINPRNGATKYNEKFRSKVTLTADKSISTAYMELSRLRSDDTAVYYCAREDYDEIYYAMDSWGQGTTVTVSS VL: ENVLTQSPATLSLSPGERATLSCSASSSVIYMYWFQQKPGQAPRLLIYDTSNLASGIPARFSGSGSGTDYTLTISSLEPEDFAVYYCQQWSTYPLTFGQGTKLEIKR |
| 81.8 nM | 67.9% | 0.097 µg/mL | HuEM0004-38-8 (antibody, human IgG1, kappa, L234A L235A, V domains shown, humanized mAb638, human IgG1/kappa) VH: EVQLVQSGAEVKKPGASVKVSCKASGYTFTSFWMHWVRQAPGQGLEWMGNINPRNGATKYNEKFRSRVTLTADKSISTAYMELSRLRSDDTAVYYCAREDYDEIYYAMDSWGQGTTVTVSS VL: ENVLTQSPATLSLSPGERATLSCSASSSVIYMYWFQQKPGQAPRLLIYDTSNLASGIPARFSGSGSGTDYTLTISSLEPEDFAVYYCQQWSTYPLTFGQGTKLEIKR |
| 83.5 nM | 71.4% | 0.149 µg/mL | HuEM0004-38-7 (antibody, human IgG1, kappa, L234A L235A, V domains shown, humanized mAb638, human IgG1/kappa) VH: EVQLVQSGAEVKKPGASVKVSCKASGYTFTSFWMHWVRQAPGQGLEWMGNINPRNGATKYNEKFRSRVTMTADKSISTAYMELSRLRSDDTAVYYCAREDYDEIYYAMDSWGQGTTVTVSS VL: ENVLTQSPATLSLSPGERATLSCSASSSVIYMYWFQQKPGQAPRLLIYDTSNLASGIPARFSGSGSGTDYTLTISSLEPEDFAVYYCQQWSTYPLTFGQGTKLEIKR |
| 65.3 nM | 99.6% | 0.021 µg/mL | HuEM0004-38-11 (antibody, human IgG1, kappa, L234A L235A, V domains shown, humanized mAb638, human IgG1/kappa) VH: EVQLVQSGAEVKKPGASVKVSCKASGYTFTSFWMHWVRQAPGQGLEWMGNINPRNGATKYNEKFRSRVTMTADTSISTAYMELSRLRSDDTAVYYCAREDYDEIYYAMDSWGQGTTVTVSS VL: ENVLTQSPATLSLSPGERATLSCSASSSVIYMYWFQQKPGQSPRVLIYDTSNLASGIPARFSGSGSGTDYTLTISSLEPEDFAVYYCQQWSTYPLTFGQGTKLEIKR |
| 18.9 nM | 98.5% | 0.019 µg/mL | HuEM0004-38-18 (antibody, human IgG1, kappa, L234A L235A, V domains shown, humanized mAb638, human IgG1/kappa) VH: EVQLVQSGAEVKKPGASVKVSCKASGYTFTSFWMHWVRQAPGQGLEWMGNINPRNGATKYNEKFRSRVTLTADKSISTAYMELSRLRSDDTAVYYCAREDYDEIYYAMDSWGQGTTVTVSS VL: ENVLTQSPATLSLSPGERATLSCSASSSVIYMYWFQQKPGQSPRVLIYDTSNLASGVPARFSGSGSGTDYTLTISSLEPEDFAVYYCQQWSTYPLTFGQGTKLEIKR |
| 41 nM | 102% | 0.027 µg/mL | HuEM0004-38-16 (antibody, human IgG1, kappa, L234A L235A, V domains shown, humanized mAb638, human IgG1/kappa) VH: EVQLVQSGAEVKKPGASVKVSCKASGYTFTSFWMHWVRQAPGQGLEWMGNINPRNGATKYNEKFRSRVTMTADTSISTAYMELSRLRSDDTAVYYCAREDYDEIYYAMDSWGQGTTVTVSS VL: ENVLTQSPATLSLSPGERATLSCSASSSVIYMYWFQQKPGQSPRVLIYDTSNLASGVPARFSGSGSGTDYTLTISSLEPEDFAVYYCQQWSTYPLTFGQGTKLEIKR |
| 27.3 nM | 100% | 0.031 µg/mL | HuEM0004-38-20 (antibody, human IgG1, kappa, L234A L235A, V domains shown, humanized mAb638, human IgG1/kappa) VH: EVQLVQSGAEVKKPGASVKVSCKASGYTFTSFWMHWVRQAPGQGLEWIGNINPRNGATKYNEKFRSKVTLTADKSISTAYMELSRLRSDDTAVYYCAREDYDEIYYAMDSWGQGTTVTVSS VL: ENVLTQSPATLSLSPGERATLSCSASSSVIYMYWFQQKPGQSPRVLIYDTSNLASGVPARFSGSGSGTDYTLTISSLEPEDFAVYYCQQWSTYPLTFGQGTKLEIKR |
| 33.2 nM | 99.2% | 0.02 µg/mL | HuEM0004-38-19 (antibody, human IgG1, kappa, L234A L235A, V domains shown, humanized mAb638, human IgG1/kappa) VH: EVQLVQSGAEVKKPGASVKVSCKASGYTFTSFWMHWVRQAPGQGLEWIGNINPRNGATKYNEKFRSRVTLTADKSISTAYMELSRLRSDDTAVYYCAREDYDEIYYAMDSWGQGTTVTVSS VL: ENVLTQSPATLSLSPGERATLSCSASSSVIYMYWFQQKPGQSPRVLIYDTSNLASGVPARFSGSGSGTDYTLTISSLEPEDFAVYYCQQWSTYPLTFGQGTKLEIKR |
| 46.9 nM | 103% | 0.023 µg/mL | HuEM0004-38-12 (antibody, human IgG1, kappa, L234A L235A, V domains shown, humanized mAb638, human IgG1/kappa) VH: EVQLVQSGAEVKKPGASVKVSCKASGYTFTSFWMHWVRQAPGQGLEWMGNINPRNGATKYNEKFRSRVTMTADKSISTAYMELSRLRSDDTAVYYCAREDYDEIYYAMDSWGQGTTVTVSS VL: ENVLTQSPATLSLSPGERATLSCSASSSVIYMYWFQQKPGQSPRVLIYDTSNLASGIPARFSGSGSGTDYTLTISSLEPEDFAVYYCQQWSTYPLTFGQGTKLEIKR |
